Source: US20250144228A1 (published 2025)

How the values were obtained:
[1] = target: A/Wisconsin/629-D00015/2009 (H1N1)pdm09 (influenza A virus)
[2] = target: A/Hong Kong/8/1968 (H3N2) (influenza A virus)
[3] = target: mouse IgG2b (mouse); test: ELISA
[4] = target: hemagglutinin (influenza A virus)
[5] = target: Influenza A virus - A/Hong Kong/8/1968 (H3N2) (influenza A virus)
[6] = target: T1, P. falciparum MSP-1 subunit p42 (plate-bound, isolated) (Plasmodium falciparum, UniProt Q8I0U8 1327-1699); test: ELISA
T1 chain: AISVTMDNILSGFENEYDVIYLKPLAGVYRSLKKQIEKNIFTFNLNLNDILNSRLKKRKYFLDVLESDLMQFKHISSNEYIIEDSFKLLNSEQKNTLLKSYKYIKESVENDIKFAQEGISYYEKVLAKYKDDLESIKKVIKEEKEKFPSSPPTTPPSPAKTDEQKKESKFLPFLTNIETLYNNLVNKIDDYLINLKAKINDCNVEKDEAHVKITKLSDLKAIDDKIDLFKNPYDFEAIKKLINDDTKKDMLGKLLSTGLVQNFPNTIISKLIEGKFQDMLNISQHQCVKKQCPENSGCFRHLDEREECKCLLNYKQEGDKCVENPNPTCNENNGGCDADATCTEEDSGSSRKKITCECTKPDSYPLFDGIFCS

[7] = target: T2, mouse polyclonal IgA (mouse, UniProt P11911); test: ELISA
T2 sequence (P11911 whole entry, looked up): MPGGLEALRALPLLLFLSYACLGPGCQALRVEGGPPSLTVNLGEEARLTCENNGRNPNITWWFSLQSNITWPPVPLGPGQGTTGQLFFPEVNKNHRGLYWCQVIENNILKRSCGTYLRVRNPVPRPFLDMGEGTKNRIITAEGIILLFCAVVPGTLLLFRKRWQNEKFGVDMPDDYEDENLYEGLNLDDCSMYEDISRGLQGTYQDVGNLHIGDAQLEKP

[8] = target: a monoclonal mouse IgM, κ Isotype Ctrl (mouse); test: ELISA
[9] = target: mouse polyclonal IgG (mouse); test: ELISA
[10] = target: T3, P. falciparum MSP-1 subunit p83 (plate-bound, isolated) (Plasmodium falciparum, UniProt Q8I0U8 20-722); test: ELISA
T3 chain: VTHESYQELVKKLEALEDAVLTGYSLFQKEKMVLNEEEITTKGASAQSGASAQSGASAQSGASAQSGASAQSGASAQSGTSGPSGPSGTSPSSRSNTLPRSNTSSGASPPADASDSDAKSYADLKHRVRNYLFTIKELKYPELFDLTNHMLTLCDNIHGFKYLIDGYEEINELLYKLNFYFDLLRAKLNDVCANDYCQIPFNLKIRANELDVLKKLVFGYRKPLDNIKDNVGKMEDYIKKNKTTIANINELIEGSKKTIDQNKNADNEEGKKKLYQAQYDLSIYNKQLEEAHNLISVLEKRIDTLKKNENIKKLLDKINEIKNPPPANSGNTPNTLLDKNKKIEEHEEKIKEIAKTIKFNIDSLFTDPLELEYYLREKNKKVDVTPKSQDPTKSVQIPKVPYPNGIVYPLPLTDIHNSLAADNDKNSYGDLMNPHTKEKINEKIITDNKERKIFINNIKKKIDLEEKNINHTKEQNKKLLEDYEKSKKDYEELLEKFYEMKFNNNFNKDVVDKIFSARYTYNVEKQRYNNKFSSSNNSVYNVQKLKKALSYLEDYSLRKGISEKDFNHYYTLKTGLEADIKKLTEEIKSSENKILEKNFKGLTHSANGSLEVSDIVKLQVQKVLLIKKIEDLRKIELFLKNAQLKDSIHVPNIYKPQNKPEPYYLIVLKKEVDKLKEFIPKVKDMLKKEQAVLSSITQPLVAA

B1: SD36-biotin (VHH)
VHH: EVQLVESGGGLVQAGGSLKLSCAASGRTYAMGWFRQAPGKEREFVAHINALGTRTYYSDSVKGRFTISRDNAKNTEYLEMNNLKPEDTAVYYCTAQGQWRAAPVAVAAEYEFWGQGTQVTVSS
Kd [1]: 18.7 nM
Kd [2]: 1.3 nM

B2: VHHkappa-SD36-biotin-1 (bispecific antibody, V domains shown)
V domain 1: QVQLVESGGGWVQPGGSLRLSCAASGFTFSDTAMMWVRQAPGKGREWVAAIDTGGGYTYYADSVKGRFTISRDNAKNTLYLQMNSLKPEDTARYYCAKTYSGNYYSNYTVANYGTTGRGTLVTVSS
V domain 2: EVQLVESGGGLVQAGGSLKLSCAASGRTYAMGWFRQAPGKEREFVAHINALGTRTYYSDSVKGRFTISRDNAKNTEYLEMNNLKPEDTAVYYCTAQGQWRAAPVAVAAEYEFWGQGTQVTVSS
Kd [3]: 2 nM

B3: VHHkappa-SD36 (bispecific antibody, V domains shown)
V domain 1: QVQLVESGGGWVQPGGSLRLSCAASGFTFSDTAMMWVRQAPGKGREWVAAIDTGGGYTYYADSVKGRFTISRDNAKNTLYLQMNSLKPEDTARYYCAKTYSGNYYSNYTVANYGTTGRGTLVTVSS
V domain 2: EVQLVESGGGLVQAGGSLKLSCAASGRTYAMGWFRQAPGKEREFVAHINALGTRTYYSDSVKGRFTISRDNAKNTEYLEMNNLKPEDTAVYYCTAQGQWRAAPVAVAAEYEFWGQGTQVTVSS
Kd [4]: 15.5 nM
Kd [5]: 0.6 nM

B4: VHHkappa-SD36-biotin-2 (bispecific antibody, V domains shown)
V domain 1: QVQLVESGGGWVQPGGSLRLSCAASGFTFSDTAMMWVRQAPGKGREWVAAIDTGGGYTYYADSVKGRFTISRDNAKNTLYLQMNSLKPEDTARYYCAKTYSGNYYSNYTVANYGTTGRGTLVTVSS
V domain 2: EVQLVESGGGLVQAGGSLKLSCAASGRTYAMGWFRQAPGKEREFVAHINALGTRTYYSDSVKGRFTISRDNAKNTEYLEMNNLKPEDTAVYYCTAQGQWRAAPVAVAAEYEFWGQGTQVTVSS
Kd [3]: 2.4 nM

B5: anti-p42 G11 VHH (P. falciparum MSP-1 specific) (VHH)
VHH: QVQLVETGGGLVQAGGSLRLSCVVSGRSLILYGMGWFRQAPGKEREFVAGIVWNGGWTYYADSVKGRFTISRDTAKNTVYLQMNSLKPEDTAVYSCAAGPGDGRRRVAPAEYNYWGQGTQVTVSS
Kd [6]: 0.52 nM

B6: VHHkappa-SD36-biotin (genetic fusion) (bispecific antibody)
chain: QVQLVESGGGWVQPGGSLRLSCAASGFTFSDTAMMWVRQAPGKGREWVAAIDTGGGYTYYADSVKGRFTISRDNAKNTLYLQMNSLKPEDTARYYCAKTYSGNYYSNYTVANYGTTGRGTLVTVSSAAAGGGGSGGGGSGGGGSEVQLVESGGGLVQAGGSLKLSCAASGRTYAMGWFRQAPGKEREFVAHINALGTRTYYSDSVKGRFTISRDNAKNTEYLEMNNLKPEDTAVYYCTAQGQWRAAPVAVAAEYEFWGQGTQVTVSSGGLPETGGHHHHHH
Kd [1]: 59.7 nM
Kd [2]: 1.8 nM

B7: VHHkappa (mouse)-SD36-biotin (bispecific antibody)
chain: QVQLVESGGGWVQPGGSLRLSCAASGFTFSDTAMMWVRQAPGKGREWVAAIDTGGGYTYYADSVKGRFTISRDNAKNTLYLQMNSLKPEDTARYYCAKTYSGNYYSNYTVANYGTTGRGTLVTVSSAAAGGGGSGGGGSGGGGSEVQLVESGGGLVQAGGSLKLSCAASGRTYAMGWFRQAPGKEREFVAHINALGTRTYYSDSVKGRFTISRDNAKNTEYLEMNNLKPEDTAVYYCTAQGQWRAAPVAVAAEYEFWGQGTQVTVSSGGLPETGGHHHHHH
Kd [7]: 0.434 nM
Kd [8]: 0.0102 nM
Kd [9]: 0.0083 nM

B8: VHHkappa (mouse)-biotin (VHH)
VHH: QVQLVESGGGWVQPGGSLRLSCAASGFTFSDTAMMWVRQAPGKGREWVAAIDTGGGYTYYADSVKGRFTISRDNAKNTLYLQMNSLKPEDTARYYCAKTYSGNYYSNYTVANYGTTGRGTLVTVSS
Kd [7]: 0.508 nM
Kd [8]: 0.0112 nM
Kd [9]: 0.0072 nM

B9: VHHkappa-biotin (VHH)
VHH: QVQLVESGGGWVQPGGSLRLSCAASGFTFSDTAMMWVRQAPGKGREWVAAIDTGGGYTYYADSVKGRFTISRDNAKNTLYLQMNSLKPEDTARYYCAKTYSGNYYSNYTVANYGTTGRGTLVTVSS
Kd [3]: 2.1 nM

B10: anti-p83 B4 VHH (P. falciparum MSP-1 specific) (VHH)
VHH: QLQLVESGGGLAQAGGSLRLSCAASGRTSSTKPMGWFRQAPGLEREFVASISWLGGSTLYSDSVKGRFTISRDNAKNTVYLQMNSLKSEDTAVYYCAGGTSAYSGRDSSRYEYWGQGTQVTVSS
Kd [10]: 1.81 nM

B11: anti-p42 A6 VHH (P. falciparum MSP-1 specific) (VHH)
VHH: QVQLVESGGGLVQAGGSLRLSCAASARTFSYYGAAWFRQAPGKEREFVAAVSWNGDDTYYADSVKGRFTISRDNTKNTVSLQMNALKPEDTAVYYCEAAAYGRDWRQSANYVYWGQGTQVTVSS
Kd [6]: 1.96 nM
